This note sets out measurements from patent US20200239863.

For data set [1], the system named is PIN-XTEN-dCas9-2xNLS (Streptococcus pyogenes). In words: cell_activity. The settings on record: no PAMmer, Northern dot blot; full-length Cas9 gave >95% loss in FIG. 8C.
Data set [2] deals with PIN-dCas9 deltaHNH del775-909 (Streptococcus pyogenes). In words: cell_activity. The following applies: COSM6, Northern blot.

In the case of “CUG repeat-targeting sgRNA ; CUG repeat RNA”, the activity (% RNA remaining) in data set [1] worked out at 35. Further, in data set [2], the activity was more than 95 % RNA loss.
